Test [1] deals with C-terminally biotinylated IL-13Rα1 (UniProt P78552). Nature of the test: SPR. A general note: Surface plasmon resonance follows binding to a sensor surface in real time, without labels.
For test [2], the target named is C-terminally biotinylated IL-13Rα2 (human) (UniProt Q14627). Nature of the test: SPR.
Test [3] addresses T1, Human IL-13 (amino acids 21–132), wild type, fully glycosylated (human, UniProt P35225 35-146, fully glycosylated). Nature of the test: ITC.
The next test deals with IL-13 K104A (human). As to the kind of experiment: ITC. Background: In ITC the heat of successive injections is recorded.
Another test concerns the target IL-13 F107A (human). Nature of the test: ITC.
In test [4] the target is T1, Human IL-13 (amino acids 21–132), wild …. As to the kind of experiment: ITC. The source holds these as a separate data set.

Read-outs that look alike come from different tables or passages of the source.

For the molecule IL-13 D87A (ligand), in test [1], the koff (usually the first-order rate constant of dissociation) worked out at 0.00751 s⁻¹ and the kon (commonly a measure of how fast the partners come together) worked out at 2.74e+06 M⁻¹ s⁻¹.

In test [1], IL-13 E15A (ligand) gave a koff of 0.00445 s⁻¹ and a kon of 2.82e+06 M⁻¹ s⁻¹.

In test [2], IL-13 F107A (ligand) displayed a koff of 0.000945 s⁻¹ and a kon of 1.15e+07 M⁻¹ s⁻¹.

On to IL-13 I14A (ligand), for which, in test [2], the koff came out at 0.000152 s⁻¹ and the kon stood at 1.79e+07 M⁻¹ s⁻¹.

In test [2], IL-13 K104A (ligand) showed a koff of 0.00271 s⁻¹ and a kon of 9.64e+06 M⁻¹ s⁻¹.

In test [1], IL-13 K105A (ligand) yielded a koff of 0.00771 s⁻¹ and a kon of 1.31e+06 M⁻¹ s⁻¹. Further, in test [2], the koff was 1.06e-05 s⁻¹ and the kon came out at 9.16e+06 M⁻¹ s⁻¹.

In test [1], IL-13 L101A (ligand) displayed a koff of 0.00463 s⁻¹ and a kon of 3.53e+06 M⁻¹ s⁻¹.

Consider IL-13 R11A (ligand), for which, in test [1], the off-rate (koff) stood at 0.00487 s⁻¹ and the kon was 1.87e+06 M⁻¹ s⁻¹.

In test [1], IL-13 T88A (ligand) registered a koff of 0.00488 s⁻¹.

In test [1], IL-13 V18A (ligand) had a koff of 0.00443 s⁻¹ and a kon of 3.26e+06 M⁻¹ s⁻¹.

B1: IL-13Rα1 soluble extracellular domain (receptor, UniProt P78552 22-343, looked up)
chain: GGGGAAPTETQPPVTNLSVSVENLCTVIWTWNPPEGASSNCSLWYFSHFGDKQDKKIAPETRRSIEVPLNERICLQVGSQCSTNESEKPSILVEKCISPPEGDPESAVTELQCIWHNLSYMKCSWLPGRNTSPDTNYTLYYWHRSLEKIHQCENIFREGQYFGCSFDLTKVKDSSFEQHSVQIMVKDNAGKIKPSFNIVPLTSRVKPDPPHIKNLSFHNDDLYVQWENPQNFISRCLFYEVEVNNSQTETHNVFYVQEAKCENPEFERNVENTSCFMVPGVLPDTLNTVRIRVKTNKLCYEDDKLWSNWSQEMSIGKKRNST
modifications: fully glycosylated
Consider B1, for which, in test [3], the dH was -11.4 kcal/mol and the stoichiometry N (commonly a count of units in the complex or per binding partner) came to 0.937.

B2: IL-13Rα2 ectodomain (amino acids 29–331) (receptor, human, UniProt Q14627 29-331, looked up)
chain: EIKVNPPQDFEIVDPGYLGYLYLQWQPPLSLDHFKECTVEYELKYRNIGSETWKTIITKNLHYKDGFDLNKGIEAKIHTLLPWQCTNGSEVQSSWAETTYWISPQGIPETKVQDMDCVYYNWQYLLCSWKPGIGVLLDTNYNLFYWYEGLDHALQCVDYIKADGQNIGCRFPYLEASDYKDFYICVNGSSENKPIRSSYFTFQLQNIVKPLPPVYLTFTRESSCEIKLKWSIPLGPIPARCFDYEIEIREDDTTLVTATVENETYTLKTTNETRQLCFVVRSKVNIYCSDDGIWSEWSDKQCW
modifications: fully glycosylated
Consider B2, for which the dH with IL-13 K104A (human) was -20.4 kcal/mol; with IL-13 F107A (human), -17.1 kcal/mol; in test [4] it was -20.1 kcal/mol; in test [3] it was -20 kcal/mol. In addition, the stoichiometry N stood at 0.884 in the test with IL-13 K104A (human), 0.949 with IL-13 F107A (human), 0.943 in test [4] and 0.98 in test [3].

(Values after article PMC2850121 (Structure (London, England : 1993), 2010).)
